Test results reported in patent publication US20240101959A1, “USE OF IL-2R-BETA-GAMMA AGONIST PEPTIDES IN CELL MANUFACTURING” (MEDIKINE, INC., priority 2022, published 2024).
Positions of bridges follow the written chain, without caps; N, C: chain ends. No end group written: not given here.

T1: hu-IL-2Rβ subunit (human, UniProt P14784 27-240, limits assumed)
T1 construct: also called human interleukin-2 receptor subunit β; CD122
T1 sequence (looked up): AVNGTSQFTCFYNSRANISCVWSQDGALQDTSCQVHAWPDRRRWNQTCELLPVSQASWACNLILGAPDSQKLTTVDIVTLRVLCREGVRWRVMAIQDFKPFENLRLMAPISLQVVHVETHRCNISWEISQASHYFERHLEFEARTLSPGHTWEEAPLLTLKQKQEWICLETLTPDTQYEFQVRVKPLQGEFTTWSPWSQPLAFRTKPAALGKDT


Each binder was assayed against T1, hu-IL-2Rβ subunit (assay: phage ELISA competition assay).

Row | Binder | IC50 [µM]
1 | MNPVGTFYPCWIAKLGELCDLQ [SEQ ID NO 357] | < 100
2 | WYPCSIASLGELCDLE [SEQ ID NO 390] | < 100
3 | RYPCWRAKLGELCDLD [SEQ ID NO 398] | < 100
4 | WYPCSIALLGELCDLESVHEKS (disulfide 4-13 (inferred)) [SEQ ID NO 359] | < 100
5 | WYPCWIAKLGEVCDLDQGTTRQ [SEQ ID NO 415] | < 100
6 | LSSKGWYPCWKARLGDLCDLE (disulfide 9-18 (inferred)) [SEQ ID NO 404] | < 100
7 | FRVSRDWFPCWMAQLGEVCDLE (disulfide 10-19 (inferred)) [SEQ ID NO 412] | < 100
8 | TESWYPCWLANLGDLCDLEWSA [SEQ ID NO 378] | < 100
9 | WHPCWMARLGELCDLD [SEQ ID NO 380] | < 100
10 | WWPCWMAQLGEMCDLEYPYVPG [SEQ ID NO 103] | < 100
11 | WLPCWRAQLGQLCDLD [SEQ ID NO 385] | < 100
12 | WYPCWLAQLGELCDAE [SEQ ID NO 396] | < 100
13 | TGRWKPCWMAGLHELCDLEGFR [SEQ ID NO 98] | < 100
14 | IERAWEWRPCWLASVGELCDLE [SEQ ID NO 413] | < 100
15 | WLPCWMAHLGDLCDLE [SEQ ID NO 362] | < 100
16 | RWTQAQWYPCWLAQLGELCDLE [SEQ ID NO 402] | < 100
17 | WYPCWMAQLGELCDLDEAPVQP [SEQ ID NO 371] | < 100
18 | ESEGRGWYPCWNALLGELCDLE (disulfide 10-19 (inferred)) [SEQ ID NO 401] | < 100
19 | WSPCWMASLGDLCDLEETRQTE [SEQ ID NO 418] | < 100
20 | HGGVIGWYPCWMAKVGELCDLD (disulfide 10-19 (inferred)) [SEQ ID NO 358] | < 100
21 | RQVPKQWYPCWMAALGELCDLE [SEQ ID NO 368] | < 100
22 | GERWKPCWIAQLGELCDLDFNW [SEQ ID NO 102] | < 100
23 | YWCWFARVGELCDLDDGGVPS [SEQ ID NO 355] | < 100

Row | Binder | IC50 [µM]
24 | WLPCYMAQLGDLCDLE [SEQ ID NO 391] | < 100
25 | SRSAGEYYPCWLAQLGELCDLA [SEQ ID NO 367] | < 100
26 | AMARRYLPCWIAKLGELCELD (disulfide 9-18 (inferred)) [SEQ ID NO 409] | < 100
27 | MTDRAFWNPCWVARLGELCDLD [SEQ ID NO 406] | < 100
28 | DIGYYPCWMAQVGDLCDLDDEK [SEQ ID NO 100] | < 100
29 | WYPCWLAHLGELCDLDWKGRND [SEQ ID NO 416] | < 100
30 | SGTGPAWYPCFLASLGQLCDLE [SEQ ID NO 383] | < 100
31 | MYPCWIAHLGELCDLD [SEQ ID NO 389] | < 100
32 | YAEWYPCWMARVGEVCDLEVTP [SEQ ID NO 374] | < 100
33 | LHAGRWNPCWLAQLGELCDLE [SEQ ID NO 403] | < 100
34 | LFPCWLAQLGELCDLE [SEQ ID NO 386] | < 100
35 | EQRNRQWWPCWLARLGDLCDLD [SEQ ID NO 360] | < 100
36 | RSLRESWFPCWMAKLGDLCDLE [SEQ ID NO 365] | < 100
37 | VASERFYPCWIARLGELCDVE (disulfide 9-18 (inferred)) [SEQ ID NO 414] | < 100
38 | WYSCWIAQIGELCDLE [SEQ ID NO 356] | < 100
39 | WLPCWMADVGDLCDLD [SEQ ID NO 379] | < 100
40 | EEQSRGFLPCWMALLGELCDLD [SEQ ID NO 399] | < 100
41 | SHLWFPCWMAQLGELCDLEGGP [SEQ ID NO 353] | < 100
42 | RPSWAPCWLAQVGELCDLDHPE (disulfide 7-16 (inferred)) [SEQ ID NO 363] | < 100
43 | WLPCWIARLGDLCDLE [SEQ ID NO 80] | < 100
44 | QGTKWHWNPCWMAQLGELCDLD [SEQ ID NO 381] | < 100
45 | RVSYPCWLARLGELCDMDLEE [SEQ ID NO 377] | < 100

The remaining lines, values ahead:

Row | IC50 [µM] | Binder
46 | < 100 | WYPCWLASLGEVCDLE [SEQ ID NO 393]
47 | < 100 | YLERSRWYPCFIAQLGELCDLE [SEQ ID NO 411]
48 | < 100 | RRWLPCWMAHVGELCDLELGN [SEQ ID NO 354]
49 | < 100 | SATWYPCFLANLGELCDLEQEN [SEQ ID NO 373]
50 | < 100 | VRTRIWYPCWSAQLGELCDLD [SEQ ID NO 408]
51 | < 100 | QVMRLWYPCWMAQLGELCDLE [SEQ ID NO 370]
52 | < 100 | DSDWWPCWMAQLGELCDLEDAR [SEQ ID NO 101]
53 | < 100 | WKPCWMALLGELCDLE [SEQ ID NO 397]
54 | < 100 | ESKEPAFWPCWMAQLGDLCDLE [SEQ ID NO 364]
55 | < 100 | RKHFYPCWMAQLGELCDLEGMP [SEQ ID NO 99]
56 | < 100 | NVTYTQWFPCWLARLGELCDLV [SEQ ID NO 407]
57 | < 100 | ARGEYRWFPCWMARLGELCDLE [SEQ ID NO 410]
58 | < 100 | WYPCWRAQLGELCDLVDLGSHL (disulfide 4-13 (inferred)) [SEQ ID NO 417]
59 | < 100 | RSGDKAFFPCWLAQLGDLCDLD [SEQ ID NO 375]
60 | < 100 | KNGPKSWYPCWMAQVGDLCDLD [SEQ ID NO 382]
61 | < 100 | DMFTHRWYPCSMAKLGELCDLE [SEQ ID NO 405]
62 | < 100 | WWPCSIARLGQLCDLD [SEQ ID NO 394]
63 | < 100 | EGVFFPCWIARLGELCDLDHGL [SEQ ID NO 97]
64 | < 100 | LGSKRQWYPCWVAHLGELCDLE [SEQ ID NO 400]
65 | < 100 | RDIWWPCWVAQLGELCDLDDPQ [SEQ ID NO 372]
66 | < 100 | WHPCWLARVGDLCDLD [SEQ ID NO 366]
